The nanobody polyreactivity screen of Harvey et al. (2022)

Test: yeast display, Sf9 membrane polyspecificity reagent, FACS + sequencing; frameworks hold sequencing errors
Outline: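 In a synthetic yeast display library (Saccharomyces cerevisiae BJ5465), nanobody expression was induced with galactose for 36–48 hours. FACS gates were set low and high (top ~1%) using anti-HA fluorescence for expression and streptavidin fluorescence for binding of the Sf9 membrane reagent. Each polyreactivity label is drawn from the gate of origin.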

| Sequence | polyreactivity (PSR sort gate) |
| --- | --- |
| QVQLVESGGGLVQAGGSLRLSCAASGSIFDYNAMGWYRQAPGKERELVAAISVSGGSTYYADSVKGRFTISRDNAKNTVYLQMNSLKPEDTAVYYCAAETWTYGWSYDYWGQGTQVTVSS | high polyreactivity |
| QVQLVESAGGLDQARGSLRLSCAASGFTFIRYAMGWYRQAPGKESELVATITRSGGSTYYADSVKGRFTISRDNAKNTVYLQMNSLKPEDTAVYYCAKRGTLGSYYYWGQGTQVTVSS | high polyreactivity |
| QVQLVESGGGLVQAGGSLRLSCAASGRIFYWNVMGWYRQAPGKERELVAAISSSGASTSYADSVKGRFTISRDNAKNTVYLQMNSLKPEDTAVYHCAARTRRNYRQYNYWGQGTQVTVSS | high polyreactivity |
| QVQHVESRGGLVQAGGSLRLSCAASGRIFTGYAMGWYRQAPGKERELVAAITASGGNTYYADSVKGRFTISRVNAKNTVYLQMNSLTPEDTAVFYCAADFYYYKIQYAYWGQGTQVTVSS | low polyreactivity |
| QVQLVESGGGLVQAGGSLRLRCAASGSIFNSYAMGWSRQAPGKERELVAAISIRGTRTYYADSVKGRFTISRDNAKNTVYLQMNSLKPEDTAVYYCAADASYTEGMDYWGQGTQVTVSS | high polyreactivity |
| QVQLVEAGGGLVQAGGSLRLSCAASGRISYTYAMGWYRQAPGNERELVAAITDGGSTTYADSVKGRFTISRDNAKNTVYLQMNSLKPEDTAVYYCNADTDSAKSPAYYYWGQGTQVTVSS | low polyreactivity |
| QVQLVESGGGLVQAGGSLRLSCAASGRTFSGYVMGWYRQAPGKERELVATINGSGASTYYADSVKGRFTISRDNAKNTVYLQRKSLKPEDSAVYYCAAKRYRPKYEYYYWGQGTQVTVSS | high polyreactivity |
| QVQLVESGGGLVQAGGSHRLSCAASGRTFGHNAMGWYRQAPGKEMEFVASIRSGGITDYADSVKGRFTISRDNAKNTVYLQMNSLKPEDTAVYYCAADVLDWYDLLRDDYWGQGTQVTVSS | low polyreactivity |
| QVQLVESGGGLVQAGGSLRLSCAASASIFVNNAKGWYRQATGKERELVAAISSRSSRTIYADSVKGRFTISRDNAKKTVYLQMNSLKPEDTAVYYCAVKKRAPDGDYWGQGTQVTVSS | high polyreactivity |
| QVQLVESGGGLVQAGGSLRLSCAASGLIFPVYVMGWYRQAPGKEREFVAAITWSTSTYYADSVKGRFTISRDNAKNTVYLQMNSLKPEDTAVYYCNARRGWYSPIYYYWGQGTQVTVSS | high polyreactivity |
| QVQLVESGGGLVQAGGSLRLSCAASGFTFYSYAMGWYRQAPGKERELVAAISWSGTRTYYADSVKGRFTISRDNAKNTVYLQMNSLKPEDTAVFYCAARGYRYGYGYWGQGTQVTVSS | high polyreactivity |
| QVQLVESGGGLVQAGGSLRLSCAASGITFTGYAMGWYRQAPGKERELVAVISETGGSTYADSVKGRFTISRDNAKNTVYLQMNSLKREDTAVYYCAARLWWPYSTAWAKMDYWGQGTQVTVSS | low polyreactivity |
| QVQLVESGGGLVQAGGSLRLSCAASGSIFVWNAMGWYRQAPGKERELVAAISYTDGSTYYADSVKGRFTISRDNAKNTVYLQMNSLKPEDTAVYYCAAAITPSYTGSEYDYWGQGTQVTVSS | low polyreactivity |
| QVQLVESRGGLVQAGGSLRLSCAASGTTINFYPMGWYRQAPGKERELVAAIRVSSGSTYYADSVKGRFTISRDNAKNNVYLQMNSLKPEDTAVYYCAAFLKDRSPRDGYDYWGQGSQVTVSS | high polyreactivity |
| QVQLVESWGGLVQAGGRLRLSCAASGRIFWRYAMGWYRQAPGKERELVAAISGRGASTYYADSVKGRFTISRDNAKNTVYLQMNSLKPEDTAVYYCAASLRYRYRYYASDYGYWGQGTQVTVSS | high polyreactivity |
| QVQLVESGGGLVQAGGSLRLSCAASGITFRGYAMGWYRQAPGTERELVAAITGSGTSTYADSVKGRFTISRDNAKNTVYLQMNILKPEDTAVYYCAADTYDPFYYGYGYWGQGTQVTVSS | low polyreactivity |
| QVQLVESGGGLVQAGASLRLSCAASGFTLYSYAMGWYRQAPGKERELDASISTGGSTYYADSVKGRFTISRDNAKNTVYLQMNSLKPVDTAVYYSAVDGWYYTSWSFYRRYEYWGQGTQVSVSS | high polyreactivity |
| QVQLVESGGGLVQAGGSLRLSCAASGLTFYSYAMGWSRQAPGKERELVAAITSSGSITYYADSVKGRFTISRDNAKNTVYLQMNSLKPEDTAVYYCAARPYRVRGQRFEGNYWGQGTQVTVSS | high polyreactivity |
| QVQLVESGGGLVQAGGSLRLSCAASGNTFQYYALGWYRQAPGKERELVAAITTGGSKNFADSVKGRFTISRDNAKNTVYLQMNSLKPEDTAVYYCAARGGVSKRISDYWGQGTQVTVSS | low polyreactivity |
| QVQLVESGGGLVQAGGSLRLSCAASGSTFYTNAMGWYRQAPGKERELFAAIRQSGGTTHYADSVKGRFTISRDNAKNTVYLLMNSLKPEDTAVYYCAAVSGGYSRRYRYGYWGQGTQVTVSS | high polyreactivity |
| QVQLVESGGGLVQAGGSLRLSCAASGFTFGYYAMGWYRQAPGKERELVATIDRGGGTSYADSVKGRFTISRDNAKNTVYLQMNSLKPEDTAVYYCAAVRQGYVAYYYWGQGTQVTVSS | high polyreactivity |
| QVQLVESGGGLVQAGGSLRLSCAASGSTIDHNAMGWYRQAPGKERELVATISSSGGSTYYADSVKGRFTISRDNAKNTVYLQMNSLKPEDTAVYYCAVRAYYWRSYPYNYWGQGTQVTVSS | high polyreactivity |
| QVQLVESGGGLVQAGGRLRLSCAASGRIFERYAMGWYRQAPGKERELVATISTSGGSTYYADSVKGRFTISRDNAKNTVYLQMNSLKPEDTAVYYCAAPYQRRRYYYWGQGTKVTVSS | high polyreactivity |
| QVQLVESGGGLVQAGGSLRLSCAASGRTFSAYAMGWYRQAPGKERELVARITSVDSTNYADSVKGRFTISRDNAKNSVYLQMNSLKPEDTAVYDCNATFGYPFVDYDDYWGQGTQVTVSS | low polyreactivity |
| QVQLVESGGGLVQAGGSLRLSCPASGFTFYVNAMGWSRQAPGKERELVAGITTSDGSTYYADSVKGRFTISRDNAKNNVYLQMNSLKPEDTAVYYCAAAITWYQLYQRSGGDYWGQGTQVTVSS | low polyreactivity |
| QVQLVESGGGLVQEGGSLRLSCAASGSILYYYAMGWYRQAPGKERELVATITRRGGSTYYADSVKGRFTISRDNAKNTVYLQMNSLKPEDTAVYFCAARSRYGELYYWGQGTQVTVSS | high polyreactivity |
| QVQLVESGGGLVQAGGSLRLSCAASGIIFPPYAMGWYRQAPWKEREFVAGITSSGGTYYADSVKGRFTISRDNAKNTVYLQMNSLKPEDTAVYYCAARQGNLRRGVRWFNYWGQGTQVTVSS | high polyreactivity |
| QVQLVESGGGLVQAGGSLRLSCAASGFIFYGNAMGWYRPAPGKERELVAAIRWNGGRTYYADSVKGRFTISRDNAKNTVYLQMNSLKAEDTAVYYCAARISQLKYGYWGQGTQVTVSS | high polyreactivity |
| QVQLVESGGGLVQAGGSLRLSCAASGRIFSAYAMGWYRQAPGKERELVAAITLSDGSTYYADSVKGRFTISRDNAKNTVYLQMNSLKPEDTAVYYCNADWYAYPYGYWGQGTQVTVSS | low polyreactivity |
| QVQLVESGGGLVQAGGSLRLSCAASGFIFYYYAMGWYRQAPGKERELVAAISSSGTSTYYADSVKGRFTISRDNAKYTVYLQMNSLKPEDTAVYYCAAYSSHREDYWGQGTQVTVSS | high polyreactivity |
